From PMC2680334, “Polo-Like Kinase 1 Directs Assembly of the HsCyk-4 RhoGAP/Ect2 RhoGEF Complex to Initiate Cleavage Furrow Formation” (PLoS Biology, 2009)
Blank lines part the entries; values can stand above or below the molecule they belong to.

B1: Ect2-BRCT (1–421), soluble, CBD removed by TEV (domain or fragment, UniProt Q9H8V3-4 1-421, looked up)
chain: MAENSVLTSTTGRTSLADSSIFDSKVTEISKENLLIGSTSYVEEEMPQIETRVILVQEAGKQEELIKALKDIKVGFVKMESVEEFEGLDSPEFENVFVVTDFQDSVFNDLYKADCRVIGPPVVLNCSQKGEPLPFSCRPLYCTSMMNLVLCFTGFRKKEELVRLVTLVHHMGGVIRKDFNSKVTHLVANCTQGEKFRVAVSLGTPIMKPEWIYKAWERRNEQDFYAAVDDFRNEFKVPPFQDCILSFLGFSDEEKTNMEEMTEMQGGKYLPLGDERCTHLVVEENIVKDLPFEPSKKLYVVKQEWFWGSIQMDARAGETMYLYEKANTPELKKSVSMLSLNTPNSNRKRRRLKETLAQLSRETDVSPFPPRKRPSAEHSLSIGSLLDISNTPESSINYGDTPKSCTKSSKSSTPVPSKQSA
notes: Ect2 N terminus with the BRCT repeats, residues 1–421; the printed UniProt entry is the human protein; also called soluble Ect2-BRCT; source: E. coli BL21 (DE3) RIL, purified on chitin beads, eluted by TEV cleavage

Columns and labels:
Ect2 Ect2-BRCT, 1-421 [1] = biological target: Ect2 Ect2-BRCT, 1-421 (UniProt Q9H8V3); assay: CBD bead pull-down, Coomassie; conditions: reference: 4A without Plk1
Ect2 Ect2-BRCT, 1-421 [2] = biological target: Ect2 Ect2-BRCT, 1-421 (UniProt Q9H8V3); assay: CBD bead pull-down, Coomassie or blot; conditions: reference: HsCyk-4-Nt without Plk1; sites S149,S157,S164,S170
[3] = biological target: T1, CBD–HsCyk-4-Nt-4D (1–288), incubated with Plk1, immobilised (UniProt Q9H0H5 1-288, Ser149 to Asp | Ser157 to Asp | Ser164 to Asp | Ser170 to Asp, incubated with Plk1-T210D (1–306) and ATP; remaining phosphorylation sites not stated); assay: pull-down; 100 nM CBD fusion on chitin beads, with or without 50 nM Plk1-T210D 1–306 and ATP (60 min, 30°C), washed; soluble partner added at equimolar amounts; 20 mM HEPES pH 7.2, 150 mM NaCl, 5 mM MgCl2, 1 mM DTT, 0.1% Triton X-100; 90 min at 4°C; Coomassie staining or Western blot; conditions: both partners purified
T1 construct: HsCyk-4/MgcRacGAP N terminus, residues 1–288, four serines changed to aspartate; also called HsCyk-4-4D (with Plk1); source: E. coli BL21 (DE3) RIL, purified on chitin beads, incubated on the beads with Plk1-T210D 1–306 and ATP
T1 sequence (looked up): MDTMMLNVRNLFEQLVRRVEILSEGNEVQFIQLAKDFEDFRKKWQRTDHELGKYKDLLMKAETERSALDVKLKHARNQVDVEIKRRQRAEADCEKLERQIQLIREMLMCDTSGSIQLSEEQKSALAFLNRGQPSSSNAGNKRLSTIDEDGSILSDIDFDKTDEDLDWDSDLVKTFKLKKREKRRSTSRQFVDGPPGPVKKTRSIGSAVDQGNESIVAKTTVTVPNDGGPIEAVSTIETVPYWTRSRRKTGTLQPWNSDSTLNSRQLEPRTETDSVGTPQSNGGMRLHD

[4] = biological target: T2, CBD–HsCyk-4-Nt (1–288) phosphorylated by Plk1, immobilised (UniProt Q9H0H5 1-288, phosphorylated in vitro by Plk1-T210D (1–306); Ser149, Ser157, Ser164 and Ser170 named as the sites); assay: as above; conditions: both partners purified
T2 construct: HsCyk-4/MgcRacGAP N terminus, residues 1–288; the printed UniProt entry is the human protein; also called HsCyk-4-wt (with Plk1); source: E. coli BL21 (DE3) RIL, purified on chitin beads, phosphorylated on the beads with Plk1-T210D 1–306
T2 sequence (looked up): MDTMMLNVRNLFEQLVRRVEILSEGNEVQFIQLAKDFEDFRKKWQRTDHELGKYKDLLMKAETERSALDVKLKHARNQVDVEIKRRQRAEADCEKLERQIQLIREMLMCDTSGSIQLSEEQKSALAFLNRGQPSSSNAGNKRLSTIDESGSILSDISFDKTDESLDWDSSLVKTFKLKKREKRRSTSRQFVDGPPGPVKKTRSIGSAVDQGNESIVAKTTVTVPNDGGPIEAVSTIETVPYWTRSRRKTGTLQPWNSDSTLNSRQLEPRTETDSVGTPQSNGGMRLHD

[5] = biological target: T3, CBD–HsCyk-4-Nt-4A (1–288), incubated with Plk1, immobilised (UniProt Q9H0H5 1-288, Ser149 to Ala | Ser157 to Ala | Ser164 to Ala | Ser170 to Ala, incubated with Plk1-T210D (1–306) and ATP; remaining phosphorylation sites not stated); assay: as above; conditions: both partners purified
T3 construct: HsCyk-4/MgcRacGAP N terminus, residues 1–288, four serines changed to alanine; also called HsCyk-4-4A; source: E. coli BL21 (DE3) RIL, purified on chitin beads, incubated on the beads with Plk1-T210D 1–306 and ATP
T3 sequence (looked up): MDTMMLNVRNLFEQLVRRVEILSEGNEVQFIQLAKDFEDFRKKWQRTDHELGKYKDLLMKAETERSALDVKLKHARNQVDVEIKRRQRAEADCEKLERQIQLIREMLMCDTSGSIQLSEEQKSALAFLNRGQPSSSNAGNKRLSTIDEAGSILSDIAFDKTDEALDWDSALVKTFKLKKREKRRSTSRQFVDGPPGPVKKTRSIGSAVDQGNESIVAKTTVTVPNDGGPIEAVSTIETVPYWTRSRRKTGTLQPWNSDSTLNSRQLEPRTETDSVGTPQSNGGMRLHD

[6] = biological target: B1; assay: as above; conditions: both partners purified

fold change (Ect2 Ect2-BRCT, 1-421 [1]): 3.1 fold
Molecule: HsCyk-4/MgcRacGAP HsCyk-4-Nt, 1-288 (from UniProt Q9H0H5) 4A treated with Plk1 and ATP

fold change (Ect2 Ect2-BRCT, 1-421 [2]): 20.2 fold
Molecule: HsCyk-4/MgcRacGAP HsCyk-4-Nt, 1-288 (from UniProt Q9H0H5) HsCyk-4-Nt treated with Plk1-T210D kinase domain and ATP

Molecule: B1
fold stimulation of binding upon Plk1 phosphorylation (against the protein without Plk1) [3]: 1.7 fold
fold stimulation of binding upon Plk1 phosphorylation (against the protein without Plk1) [4]: 20.2 fold
fold stimulation of binding upon Plk1 phosphorylation (against the protein without Plk1) [5]: 3.1 fold

binding result [6]: binds
B2: CBD–HsCyk-4-Nt-4D (1–288), not incubated with Plk1, immobilised (domain or fragment, UniProt Q9H0H5 1-288, looked up)
chain: MDTMMLNVRNLFEQLVRRVEILSEGNEVQFIQLAKDFEDFRKKWQRTDHELGKYKDLLMKAETERSALDVKLKHARNQVDVEIKRRQRAEADCEKLERQIQLIREMLMCDTSGSIQLSEEQKSALAFLNRGQPSSSNAGNKRLSTIDEDGSILSDIDFDKTDEDLDWDSDLVKTFKLKKREKRRSTSRQFVDGPPGPVKKTRSIGSAVDQGNESIVAKTTVTVPNDGGPIEAVSTIETVPYWTRSRRKTGTLQPWNSDSTLNSRQLEPRTETDSVGTPQSNGGMRLHD
notes: HsCyk-4/MgcRacGAP N terminus, residues 1–288, four serines changed to aspartate; also called HsCyk-4-4D; source: E. coli BL21 (DE3) RIL, purified on chitin beads, kept on the beads
